Results: patent US20160200782A1 (MOERAE MATRIX, published 2016)

T1: EphA8(h) (human, UniProt P29322 564-1005, limits assumed)
T1 sequence (looked up): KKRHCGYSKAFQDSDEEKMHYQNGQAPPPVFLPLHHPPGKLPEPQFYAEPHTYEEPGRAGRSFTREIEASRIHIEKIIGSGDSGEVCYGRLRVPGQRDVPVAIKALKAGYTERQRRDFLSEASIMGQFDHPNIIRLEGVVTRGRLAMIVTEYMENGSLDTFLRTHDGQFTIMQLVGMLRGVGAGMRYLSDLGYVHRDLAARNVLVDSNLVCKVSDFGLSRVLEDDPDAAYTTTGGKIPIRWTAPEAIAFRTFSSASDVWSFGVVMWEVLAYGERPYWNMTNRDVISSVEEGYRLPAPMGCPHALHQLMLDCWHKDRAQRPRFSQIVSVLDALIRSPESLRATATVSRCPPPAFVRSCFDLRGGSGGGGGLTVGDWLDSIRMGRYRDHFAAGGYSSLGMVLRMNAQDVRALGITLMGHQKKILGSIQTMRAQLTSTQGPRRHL

T2: NLK(h) (human, UniProt Q9UBE8 1-527, limits assumed)
T2 sequence (looked up): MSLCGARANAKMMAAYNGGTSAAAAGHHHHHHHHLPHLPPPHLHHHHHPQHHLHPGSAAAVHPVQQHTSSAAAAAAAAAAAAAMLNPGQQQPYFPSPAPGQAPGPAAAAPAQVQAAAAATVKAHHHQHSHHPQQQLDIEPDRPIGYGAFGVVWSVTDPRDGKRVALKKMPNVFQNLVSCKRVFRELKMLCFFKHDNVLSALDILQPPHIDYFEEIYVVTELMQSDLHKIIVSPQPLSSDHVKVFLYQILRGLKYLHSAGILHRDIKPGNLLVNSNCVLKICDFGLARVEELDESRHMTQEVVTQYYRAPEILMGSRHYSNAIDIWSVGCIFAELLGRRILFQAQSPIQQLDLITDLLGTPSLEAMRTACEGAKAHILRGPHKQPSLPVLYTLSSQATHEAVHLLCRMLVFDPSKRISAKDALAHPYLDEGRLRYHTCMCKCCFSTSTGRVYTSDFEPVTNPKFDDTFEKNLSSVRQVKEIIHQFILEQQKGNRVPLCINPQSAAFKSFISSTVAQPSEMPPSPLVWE

T3: PKCµ(h) (human, UniProt Q15139 1-912, limits assumed)
T3 sequence (looked up): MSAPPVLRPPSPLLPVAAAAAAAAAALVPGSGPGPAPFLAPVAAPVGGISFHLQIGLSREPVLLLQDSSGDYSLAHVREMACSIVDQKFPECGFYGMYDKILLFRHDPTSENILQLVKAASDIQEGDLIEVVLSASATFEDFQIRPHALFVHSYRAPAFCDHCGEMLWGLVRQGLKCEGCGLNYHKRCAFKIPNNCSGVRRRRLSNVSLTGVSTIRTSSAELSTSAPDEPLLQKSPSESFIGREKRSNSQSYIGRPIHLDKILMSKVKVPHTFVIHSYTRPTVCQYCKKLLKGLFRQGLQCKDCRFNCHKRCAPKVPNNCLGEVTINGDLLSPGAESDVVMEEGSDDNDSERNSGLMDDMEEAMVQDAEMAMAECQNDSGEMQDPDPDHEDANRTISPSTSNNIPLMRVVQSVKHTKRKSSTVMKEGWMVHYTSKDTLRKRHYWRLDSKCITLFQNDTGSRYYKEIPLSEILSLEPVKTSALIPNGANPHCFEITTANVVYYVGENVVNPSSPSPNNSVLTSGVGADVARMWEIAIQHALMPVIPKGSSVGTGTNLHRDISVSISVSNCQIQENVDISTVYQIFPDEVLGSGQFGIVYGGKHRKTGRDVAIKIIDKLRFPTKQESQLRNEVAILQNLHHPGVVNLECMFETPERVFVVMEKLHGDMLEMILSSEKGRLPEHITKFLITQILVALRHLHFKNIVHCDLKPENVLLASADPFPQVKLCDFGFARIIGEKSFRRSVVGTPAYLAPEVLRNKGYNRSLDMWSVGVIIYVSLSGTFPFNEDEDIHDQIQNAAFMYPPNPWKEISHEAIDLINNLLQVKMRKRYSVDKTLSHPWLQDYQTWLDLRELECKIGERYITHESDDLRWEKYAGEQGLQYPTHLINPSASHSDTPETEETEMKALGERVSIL

T4: IKKβ(h) (human, UniProt O14920 1-756, limits assumed)
T4 sequence (looked up): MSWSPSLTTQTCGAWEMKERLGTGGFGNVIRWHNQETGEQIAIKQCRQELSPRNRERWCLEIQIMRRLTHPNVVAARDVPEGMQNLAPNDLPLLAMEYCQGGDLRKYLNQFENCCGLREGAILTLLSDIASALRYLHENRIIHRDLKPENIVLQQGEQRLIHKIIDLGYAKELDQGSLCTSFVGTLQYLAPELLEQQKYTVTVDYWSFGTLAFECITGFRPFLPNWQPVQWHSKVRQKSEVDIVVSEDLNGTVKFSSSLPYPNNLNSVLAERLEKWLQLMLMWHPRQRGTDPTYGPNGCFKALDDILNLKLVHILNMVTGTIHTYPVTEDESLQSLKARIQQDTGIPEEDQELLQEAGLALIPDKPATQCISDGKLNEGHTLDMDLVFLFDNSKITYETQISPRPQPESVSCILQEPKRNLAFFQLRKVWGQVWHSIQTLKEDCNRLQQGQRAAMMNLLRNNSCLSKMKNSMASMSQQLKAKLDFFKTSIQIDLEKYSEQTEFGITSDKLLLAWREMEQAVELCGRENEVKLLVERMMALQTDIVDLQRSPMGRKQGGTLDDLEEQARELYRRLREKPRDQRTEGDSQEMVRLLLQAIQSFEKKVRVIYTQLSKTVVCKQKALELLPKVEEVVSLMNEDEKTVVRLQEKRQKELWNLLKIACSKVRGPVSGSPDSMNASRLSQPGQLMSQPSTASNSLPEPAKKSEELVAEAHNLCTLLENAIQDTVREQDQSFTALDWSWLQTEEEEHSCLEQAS


What was measured:
Assay in all cases: cell-based or functional assay
[1] = target: T1, EphA8(h)
[2] = target: T2, NLK(h)
[3] = target: IGF-1R(h), activated (human, UniProt P08069 959-1367, limits assumed)
Chain of IGF-1R(h), activated (P08069 959-1367 limits assumed): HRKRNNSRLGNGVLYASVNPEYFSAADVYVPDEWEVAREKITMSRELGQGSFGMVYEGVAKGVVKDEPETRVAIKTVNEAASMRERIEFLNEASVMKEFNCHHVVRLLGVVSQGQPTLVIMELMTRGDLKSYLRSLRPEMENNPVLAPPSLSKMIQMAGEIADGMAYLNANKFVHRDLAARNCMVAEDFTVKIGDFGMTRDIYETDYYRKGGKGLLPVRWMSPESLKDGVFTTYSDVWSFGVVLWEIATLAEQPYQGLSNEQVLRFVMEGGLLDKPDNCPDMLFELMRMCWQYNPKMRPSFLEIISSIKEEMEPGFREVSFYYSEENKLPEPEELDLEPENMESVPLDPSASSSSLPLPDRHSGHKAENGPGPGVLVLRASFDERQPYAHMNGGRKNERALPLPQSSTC

[4] = target: Ros(h) (human, UniProt P08922 1883-2347, limits assumed)
Chain of Ros(h) (P08922 1883-2347 limits assumed): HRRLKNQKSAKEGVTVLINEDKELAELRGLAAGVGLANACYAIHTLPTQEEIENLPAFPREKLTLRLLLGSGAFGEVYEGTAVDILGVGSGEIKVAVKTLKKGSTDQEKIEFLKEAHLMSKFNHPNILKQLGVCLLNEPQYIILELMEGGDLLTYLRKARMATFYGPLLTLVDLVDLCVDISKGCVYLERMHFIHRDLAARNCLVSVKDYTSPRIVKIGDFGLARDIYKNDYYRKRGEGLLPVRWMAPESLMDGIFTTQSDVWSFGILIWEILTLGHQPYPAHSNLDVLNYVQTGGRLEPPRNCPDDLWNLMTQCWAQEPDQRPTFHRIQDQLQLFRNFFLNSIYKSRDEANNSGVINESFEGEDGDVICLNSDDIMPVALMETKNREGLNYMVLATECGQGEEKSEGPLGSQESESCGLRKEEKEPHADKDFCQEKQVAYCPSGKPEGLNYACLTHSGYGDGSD

[5] = target: T3, PKCµ(h)
[6] = target: MINK(h) (human, UniProt Q8N4C8 1-320, limits assumed)
Chain of MINK(h) (Q8N4C8 1-320 limits assumed): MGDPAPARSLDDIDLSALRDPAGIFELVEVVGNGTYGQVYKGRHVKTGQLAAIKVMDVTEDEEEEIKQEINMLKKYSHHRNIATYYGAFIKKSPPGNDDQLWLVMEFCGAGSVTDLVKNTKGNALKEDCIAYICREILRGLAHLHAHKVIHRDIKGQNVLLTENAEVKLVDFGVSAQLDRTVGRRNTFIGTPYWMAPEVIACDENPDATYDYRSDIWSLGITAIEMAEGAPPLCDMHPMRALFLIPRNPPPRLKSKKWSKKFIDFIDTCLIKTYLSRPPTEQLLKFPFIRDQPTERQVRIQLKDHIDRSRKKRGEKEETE

[7] = target: T4, IKKβ(h)
[8] = target: CDK1/cyclinB(h) (human, UniProt P06493 1-297; P06493 1-297)
Chain of CDK1/cyclinB(h) (P06493 whole entry, chain 1 of 2): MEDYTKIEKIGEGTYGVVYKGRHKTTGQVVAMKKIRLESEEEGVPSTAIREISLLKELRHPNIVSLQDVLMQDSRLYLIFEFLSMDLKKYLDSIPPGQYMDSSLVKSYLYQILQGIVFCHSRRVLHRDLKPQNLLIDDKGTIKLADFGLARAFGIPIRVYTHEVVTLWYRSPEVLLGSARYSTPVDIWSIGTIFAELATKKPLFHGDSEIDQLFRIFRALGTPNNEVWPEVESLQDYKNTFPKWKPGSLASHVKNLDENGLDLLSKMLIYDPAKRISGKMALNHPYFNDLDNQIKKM
Chain of CDK1/cyclinB(h) (P06493 whole entry, chain 2 of 2): as the sequence (P06493 whole entry, chain 1 of 2) above

| Binder | % activity [1] | % activity [2] | % activity [3] | % activity [4] | % activity [5] | % activity [6] | % activity [7] | % activity [8] |
| --- | --- | --- | --- | --- | --- | --- | --- | --- |
| FAKLAARLYRKALARQLGVAA [MMI-0300] | 93% | 87% | 80% | 95% | 22% | 48% | 84% | 73% |
| KAFAKLAARLYRKALARQLGVAA [MMI-0400] | 146% | 90% | 77% | 99% | 14% | 52% | 84% | 74% |
